Measured values taken from the supplement of paper PMC10567573.

B1: ZNF263 (parent)
chain: KPYKCTLCGENFSHRSNLIRHQRI
B2: RHOBTB2 (parent)
chain: HHHHGRDFLLRAASFDVCESVDEA

Variants of: B1
Experiment: protein stability index of a GFP-peptide fusion (GPS, HEK-293T) (PSI 1-6); higher = more stable
Settings: c terminus: a fixed tail appended
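Also: lentivirally expressed fusions sorted by FACS into six bins by GFP to DsRed ratio, PSI derived from sequencing read proportions per bin multiplied by bin number.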

Variant	protein stability index
KPYKCTLCGENFSHRSCLIRHQRI [N17C]	2.47
KPYKCTLCGENFSHRSGLIRHQRI [N17G]	3.16
KPYKCTLCGENFSHRSSLIRHQRI [N17S]	2.99
KPYKCTLCGENFSHRSILIRHQRI [N17I]	2.93
KPYKCTLCGENFSHRSELIRHQRI [N17E]	3.31
KPYKCTLCGENFSHRSKLIRHQRI [N17K]	3.28
KPYKCTLCGENFSHRSQLIRHQRI [N17Q]	2.9
KPYKCCLCGENFSHRSNLIRHQRI [T6C]	2.1
KPYKCHLCGENFSHRSNLIRHQRI [T6H]	3.1
KPYKCDLCGENFSHRSNLIRHQRI [T6D]	2.7
KPYKCPLCGENFSHRSNLIRHQRI [T6P]	2.42
KPYKCTLCGCNFSHRSNLIRHQRI [E10C]	1.94
KPYKCTLCGMNFSHRSNLIRHQRI [E10M]	2.67
KPYKCTLCGANFSHRSNLIRHQRI [E10A]	2.82
KPYKCTLCNENFSHRSNLIRHQRI [G9N]	2.36
KPYKCTLCHENFSHRSNLIRHQRI [G9H]	1.81
KPYKCTLCPENFSHRSNLIRHQRI [G9P]	1.67
KPYKCTLCAENFSHRSNLIRHQRI [G9A]	2.19
KPYKCTLCLENFSHRSNLIRHQRI [G9L]	1.16
KPYKCTLCKENFSHRSNLIRHQRI [G9K]	2.05
KPYKCTLCGENFVHRSNLIRHQRI [S13V]	2.39
KPYKCTLCGENFAHRSNLIRHQRI [S13A]	2.87
KPYKCTLCGENFHHRSNLIRHQRI [S13H]	2.38
KPYKCTLCGENFNHRSNLIRHQRI [S13N]	2.35
KPYKCTLCGENFQHRSNLIRHQRI [S13Q]	2.84
KPYKCTLCGENASHRSNLIRHQRI [F12A]	1.97
KPYKCTLCGENRSHRSNLIRHQRI [F12R]	1.54

Variant	protein stability index
KPYKCTLCGENISHRSNLIRHQRI [F12I]	2.41
KPYKCTLCGENDSHRSNLIRHQRI [F12D]	1.28
KPYKCTLCGENFSHRSNLCRHQRI [I19C]	4.18
KPYKCTLCGENFSHRSNLARHQRI [I19A]	2.57
KPYKCTLCGENFSHRSNLVRHQRI [I19V]	2.54
KPYKCTCCGENFSHRSNLIRHQRI [L7C]	3.9
KPYKCTNCGENFSHRSNLIRHQRI [L7N]	2.78
KPYKCTLCGENFSHRSNLIRHQEI [R23E]	2.67
KPYKCTLCGENFSHRSNLIRHQQI [R23Q]	2.34
KPYKCTLCGENFSHRSNLIRHQFI [R23F]	1.66
KPYKCTLCGENFSHRSNLIRHQAI [R23A]	2.57
KPYKCTLCGENFSHRSNLIRHQYI [R23Y]	2.57
KSYKCTLCGENFSHRSNLIRHQRI [P2S]	2.59
KHYKCTLCGENFSHRSNLIRHQRI [P2H]	2.49
KNYKCTLCGENFSHRSNLIRHQRI [P2N]	2.49
KYYKCTLCGENFSHRSNLIRHQRI [P2Y]	2.14
KPYPCTLCGENFSHRSNLIRHQRI [K4P]	1.96
KPYTCTLCGENFSHRSNLIRHQRI [K4T]	2.52
KPYKCTLCGENFSHRSNLIRWQRI [H21W]	3.53
KPYKCTLCGENFSHRSNKIRHQRI [L18K]	2.19
KPYKCTLCGENFSHRSNAIRHQRI [L18A]	2.35
KPYKCTLCGENFSHRSNVIRHQRI [L18V]	2.59
KPYKCTLCGENFSHRSNLIRHQRD [I24D]	3.09
KPYKCTLCGENFSHRSNLIRHQRG [I24G]	2.75
KPYKCTLCGENFSHRSNLIRHQRP [I24P]	2.59
KPYKCTLCGENFSHRSNLIRHQRC [I24C]	3.76
KPYKCTLCGENFSERSNLIRHQRI [H14E]	2.95

Variant	protein stability index
KPYKCTLCGENFSHRSNLIVHQRI [R20V]	1.99
KPYKCTLCGENFSHRSNLIFHQRI [R20F]	2.58
KPYKCTLCGENFSHRSNLISHQRI [R20S]	1.8
KPYKCTLCGENFSHRSNLIAHQRI [R20A]	2.43
KPTKCTLCGENFSHRSNLIRHQRI [Y3T]	2.4
KPNKCTLCGENFSHRSNLIRHQRI [Y3N]	2.47
KPFKCTLCGENFSHRSNLIRHQRI [Y3F]	2.23
KPYKCTLCGENFSHSSNLIRHQRI [R15S]	1.38
KPYKCTLCGENFSHLSNLIRHQRI [R15L]	2.45
KPYKCTLCGENFSHESNLIRHQRI [R15E]	2.69
KPYKCTLCGENFSHWSNLIRHQRI [R15W]	2.54
KPYKCTLCGENFSHVSNLIRHQRI [R15V]	2.88
KPYKCTLCGENFSHRMNLIRHQRI [S16M]	2.26
KPYKCTLCGENFSHRHNLIRHQRI [S16H]	2.76
KPYKCTLCGENFSHRKNLIRHQRI [S16K]	3.28
TPYKCTLCGENFSHRSNLIRHQRI [K1T]	2.08
NPYKCTLCGENFSHRSNLIRHQRI [K1N]	2.12
LPYKCTLCGENFSHRSNLIRHQRI [K1L]	2.25
KPYKCTLHGENFSHRSNLIRHQRI [C8H]	2.1
KPYKCTLVGENFSHRSNLIRHQRI [C8V]	2.47
KPYKCTLPGENFSHRSNLIRHQRI [C8P]	2.45
KPYKFTLCGENFSHRSNLIRHQRI [C5F]	1.45
KPYKQTLCGENFSHRSNLIRHQRI [C5Q]	3.12
KPYKGTLCGENFSHRSNLIRHQRI [C5G]	2.22
KPYKCTLCGEMFSHRSNLIRHQRI [N11M]	3.49

Variants of: B2
Experiment: as above
Settings: c terminus: a fixed tail appended

Variant	protein stability index
HHFHGRDFLLRAASFDVCESVDEA [H3F]	3.33
HHDHGRDFLLRAASFDVCESVDEA [H3D]	4.67
HHTHGRDFLLRAASFDVCESVDEA [H3T]	3.58
HHGHGRDFLLRAASFDVCESVDEA [H3G]	3.9
HHRHGRDFLLRAASFDVCESVDEA [H3R]	2.76
HHWHGRDFLLRAASFDVCESVDEA [H3W]	2.43
HHQHGRDFLLRAASFDVCESVDEA [H3Q]	3.87
HHNHGRDFLLRAASFDVCESVDEA [H3N]	4.44
HHAHGRDFLLRAASFDVCESVDEA [H3A]	3.58
HHEHGRDFLLRAASFDVCESVDEA [H3E]	4.71
HHVHGRDFLLRAASFDVCESVDEA [H3V]	3.65
HHYHGRDFLLRAASFDVCESVDEA [H3Y]	3.51
HHCHGRDFLLRAASFDVCESVDEA [H3C]	2.92
HHMHGRDFLLRAASFDVCESVDEA [H3M]	3.4
HHKHGRDFLLRAASFDVCESVDEA [H3K]	3.04
HHIHGRDFLLRAASFDVCESVDEA [H3I]	3.52
HHPHGRDFLLRAASFDVCESVDEA [H3P]	3.56
HHLHGRDFLLRAASFDVCESVDEA [H3L]	3.62
HHSHGRDFLLRAASFDVCESVDEA [H3S]	3.83
QHHHGRDFLLRAASFDVCESVDEA [H1Q]	4.26
AHHHGRDFLLRAASFDVCESVDEA [H1A]	4.49
MHHHGRDFLLRAASFDVCESVDEA [H1M]	4.17

Variant	protein stability index
YHHHGRDFLLRAASFDVCESVDEA [H1Y]	3.84
FHHHGRDFLLRAASFDVCESVDEA [H1F]	1.48
WHHHGRDFLLRAASFDVCESVDEA [H1W]	3.36
EHHHGRDFLLRAASFDVCESVDEA [H1E]	4.42
IHHHGRDFLLRAASFDVCESVDEA [H1I]	3.45
RHHHGRDFLLRAASFDVCESVDEA [H1R]	3.92
LHHHGRDFLLRAASFDVCESVDEA [H1L]	3.74
SHHHGRDFLLRAASFDVCESVDEA [H1S]	4.34
KHHHGRDFLLRAASFDVCESVDEA [H1K]	4.35
PHHHGRDFLLRAASFDVCESVDEA [H1P]	4.71
DHHHGRDFLLRAASFDVCESVDEA [H1D]	4.88
CHHHGRDFLLRAASFDVCESVDEA [H1C]	4.02
VHHHGRDFLLRAASFDVCESVDEA [H1V]	3.21
THHHGRDFLLRAASFDVCESVDEA [H1T]	4.59
GHHHGRDFLLRAASFDVCESVDEA [H1G]	4.55
NHHHGRDFLLRAASFDVCESVDEA [H1N]	4.53
HTHHGRDFLLRAASFDVCESVDEA [H2T]	1.8
HFHHGRDFLLRAASFDVCESVDEA [H2F]	3.69
HGHHGRDFLLRAASFDVCESVDEA [H2G]	3.72
HAHHGRDFLLRAASFDVCESVDEA [H2A]	4.04
HQHHGRDFLLRAASFDVCESVDEA [H2Q]	4.04
HWHHGRDFLLRAASFDVCESVDEA [H2W]	3.35

Variant	protein stability index
HRHHGRDFLLRAASFDVCESVDEA [H2R]	3.9
HPHHGRDFLLRAASFDVCESVDEA [H2P]	4.49
HIHHGRDFLLRAASFDVCESVDEA [H2I]	3.92
HYHHGRDFLLRAASFDVCESVDEA [H2Y]	4.16
HKHHGRDFLLRAASFDVCESVDEA [H2K]	4.67
HMHHGRDFLLRAASFDVCESVDEA [H2M]	3.96
HVHHGRDFLLRAASFDVCESVDEA [H2V]	3.46
HSHHGRDFLLRAASFDVCESVDEA [H2S]	2.62
HLHHGRDFLLRAASFDVCESVDEA [H2L]	3.93
HNHHGRDFLLRAASFDVCESVDEA [H2N]	4.52
HDHHGRDFLLRAASFDVCESVDEA [H2D]	4.67
HEHHGRDFLLRAASFDVCESVDEA [H2E]	4.75
HCHHGRDFLLRAASFDVCESVDEA [H2C]	3.43
HHHHDRDFLLRAASFDVCESVDEA [G5D]	4.86
HHHHERDFLLRAASFDVCESVDEA [G5E]	4.42
HHHHPRDFLLRAASFDVCESVDEA [G5P]	4.44
HHHHVRDFLLRAASFDVCESVDEA [G5V]	3.37
HHHHRRDFLLRAASFDVCESVDEA [G5R]	4.3
HHHHFRDFLLRAASFDVCESVDEA [G5F]	1.6
HHHHTRDFLLRAASFDVCESVDEA [G5T]	4.15
HHHHYRDFLLRAASFDVCESVDEA [G5Y]	2.33
HHHHCRDFLLRAASFDVCESVDEA [G5C]	2.63

Variant	protein stability index
HHHHIRDFLLRAASFDVCESVDEA [G5I]	3.27
HHHHKRDFLLRAASFDVCESVDEA [G5K]	4.2
HHHHHRDFLLRAASFDVCESVDEA [G5H]	4.34
HHHHNRDFLLRAASFDVCESVDEA [G5N]	3.95
HHHHQRDFLLRAASFDVCESVDEA [G5Q]	4.21
HHHHWRDFLLRAASFDVCESVDEA [G5W]	2.21
HHHHARDFLLRAASFDVCESVDEA [G5A]	3.83
HHHHSRDFLLRAASFDVCESVDEA [G5S]	4.61
HHHHLRDFLLRAASFDVCESVDEA [G5L]	2.6
HHHHMRDFLLRAASFDVCESVDEA [G5M]	3.42
HHHNGRDFLLRAASFDVCESVDEA [H4N]	4.15
HHHTGRDFLLRAASFDVCESVDEA [H4T]	3.94
HHHLGRDFLLRAASFDVCESVDEA [H4L]	3.65
HHHVGRDFLLRAASFDVCESVDEA [H4V]	4.02
HHHGGRDFLLRAASFDVCESVDEA [H4G]	3.73
HHHIGRDFLLRAASFDVCESVDEA [H4I]	3.83
HHHAGRDFLLRAASFDVCESVDEA [H4A]	3.67
HHHKGRDFLLRAASFDVCESVDEA [H4K]	3.25
HHHSGRDFLLRAASFDVCESVDEA [H4S]	4.15
HHHQGRDFLLRAASFDVCESVDEA [H4Q]	4.11
HHHCGRDFLLRAASFDVCESVDEA [H4C]	2.67
HHHFGRDFLLRAASFDVCESVDEA [H4F]	3.38

Variant	protein stability index
HHHWGRDFLLRAASFDVCESVDEA [H4W]	2.31
HHHMGRDFLLRAASFDVCESVDEA [H4M]	3.61
HHHRGRDFLLRAASFDVCESVDEA [H4R]	3.62
HHHYGRDFLLRAASFDVCESVDEA [H4Y]	3.3
HHHDGRDFLLRAASFDVCESVDEA [H4D]	4.12
HHHPGRDFLLRAASFDVCESVDEA [H4P]	4.59
HHHEGRDFLLRAASFDVCESVDEA [H4E]	3.96
HHHHGKDFLLRAASFDVCESVDEA [R6K]	4.5
HHHHGLDFLLRAASFDVCESVDEA [R6L]	3.81
HHHHGHDFLLRAASFDVCESVDEA [R6H]	4.41
HHHHGCDFLLRAASFDVCESVDEA [R6C]	3.51
HHHHGGDFLLRAASFDVCESVDEA [R6G]	4.7
HHHHGNDFLLRAASFDVCESVDEA [R6N]	4.59
HHHHGADFLLRAASFDVCESVDEA [R6A]	4.33
HHHHGPDFLLRAASFDVCESVDEA [R6P]	4.19
HHHHGIDFLLRAASFDVCESVDEA [R6I]	2.12
HHHHGEDFLLRAASFDVCESVDEA [R6E]	5.07
HHHHGFDFLLRAASFDVCESVDEA [R6F]	2.8
HHHHGMDFLLRAASFDVCESVDEA [R6M]	3.49
HHHHGDDFLLRAASFDVCESVDEA [R6D]	4.61
HHHHGQDFLLRAASFDVCESVDEA [R6Q]	4.37
